The experiment concerns the target T1, Human CD22 extracellular segment conjugated His label (human, UniProt P20273 20-687).
T1 construct: extracellular domain; Bought recombinant protein; also called h CD22-His; hCD22-His; not shown: His label
The experiment is described as follows: ELISA, h CD22-His coated at 2 µg/ml, antibody in 3-fold dilutions. The source says: M971 was a 7 epitope humanized CD22 antibody. The specific sequence and information can be found publicly. The antibody was synthesized by Shenzhen FeipengBiological therapy Co., LTD.
On the technique in general: In an ELISA, binding on a coated surface is turned into a signal by an enzyme label.

B1: CD22 antibody FC2-117 (antibody, IgG1, V domains shown)
VH: DVQLQESGPGLVKPSQSLSLTCSVTGYSITSGYYWNWIRQFPGNKLEWMGYISYDGSNNYNPSLKNRISITRDTSKNQFFLKLNSVTTEDTATYYCTKGGYGYYFDYWGQGTTLTVSS
VL: DIQMTQSPASLSASVGETVTITCRASGNIHNYLAWYQQKQGKSPQLLVYNAKTLADGVPSRFSGSGSGTQYSLKINSLQPEDFGSYYCQHFWSTPPTFGGGTKLEIKR
notes: Mouse hybridoma monoclonal antibody
Consider B1, for which the binding result is recorded as “binds”.

B2: CD22 antibody FC2-201 (antibody, IgG2b, V domains shown)
VH: KVQLQQSGAGLVKPGASVKLSCKASGYTFTDSILHWLMQRSGQGLEWIGWFYPGSGSIKYNEKFKDKATLTADKSSSTVYMELSRLTSEDSAFYFCARHEDGYDGFAYWGQGTLVTVSA
VL: ENVLTQSPAIMSASLGEKVTMSCRASSSVNYIFWYQQKSDASPKLWIYYTSNLAPGVPARFSGSGSGNSYSLTISSMEGEDAATYYCQQFTSSPFTFGSGTKLEIKR
notes: as for B1
Turning to B2, the binding result is “binds”.
